# Residue numbers refer to the chain shown, from its start.
# T1: human CD73 (ecto-5'-nucleotidase) expressed at the cell surface (human, UniProt P21589 27-549)
# T1 construct: Used for huCD73-expressing recombinant cell lines, MDA-MB-231 cells (endogenous CD73), HEK-293T cells with wild type CD73, and primary T and B cells; also called huCD73; wild type CD73
# T1 sequence: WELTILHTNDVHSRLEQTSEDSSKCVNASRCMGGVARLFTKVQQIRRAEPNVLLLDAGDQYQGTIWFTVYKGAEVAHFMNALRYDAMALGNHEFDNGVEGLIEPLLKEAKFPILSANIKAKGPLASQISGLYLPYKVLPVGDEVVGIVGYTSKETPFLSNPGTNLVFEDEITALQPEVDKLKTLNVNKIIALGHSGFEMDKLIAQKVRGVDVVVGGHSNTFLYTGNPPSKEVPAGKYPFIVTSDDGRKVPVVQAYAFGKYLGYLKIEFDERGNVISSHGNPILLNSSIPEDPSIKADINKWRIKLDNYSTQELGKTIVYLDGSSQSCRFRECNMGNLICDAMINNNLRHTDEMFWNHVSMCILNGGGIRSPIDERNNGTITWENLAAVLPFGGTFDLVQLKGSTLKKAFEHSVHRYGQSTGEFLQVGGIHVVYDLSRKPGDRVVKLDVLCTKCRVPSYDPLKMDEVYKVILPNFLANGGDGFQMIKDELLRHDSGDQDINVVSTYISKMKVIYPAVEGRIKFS
# T2: human CD73 mutant 4 (human, UniProt P21589 27-549)
# T2 construct: Transfected in HEK-293T cells
# T2 chain: T1 sequence with K119A, K121A, S126H, S129A, Y135S, E177A, K180A
# T3: recombinant human CD73-His extracellular domain protein, soluble dimer (human, UniProt P21589 27-547)
# T3 construct: also called huCD73 protein; human recombinant soluble dimeric CD73
# T3 sequence: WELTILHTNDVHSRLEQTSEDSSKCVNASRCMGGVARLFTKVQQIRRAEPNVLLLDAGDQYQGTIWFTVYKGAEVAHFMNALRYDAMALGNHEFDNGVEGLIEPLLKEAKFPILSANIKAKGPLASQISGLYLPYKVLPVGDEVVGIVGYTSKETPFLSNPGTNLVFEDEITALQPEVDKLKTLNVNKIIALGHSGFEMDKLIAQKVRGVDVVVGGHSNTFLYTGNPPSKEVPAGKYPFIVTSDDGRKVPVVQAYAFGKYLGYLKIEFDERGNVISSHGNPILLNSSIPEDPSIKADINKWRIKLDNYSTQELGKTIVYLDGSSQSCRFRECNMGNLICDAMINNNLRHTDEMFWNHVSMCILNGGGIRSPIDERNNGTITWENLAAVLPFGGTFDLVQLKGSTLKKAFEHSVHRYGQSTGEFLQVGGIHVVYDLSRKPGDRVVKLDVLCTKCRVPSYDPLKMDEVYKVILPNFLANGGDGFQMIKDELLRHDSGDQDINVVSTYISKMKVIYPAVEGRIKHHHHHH
# B1: antibody 7H10 (antibody, human IgG1, V domains shown)
# VH: DVQLQESGPGLVKPSQSLSLTCTVTGYSITSDYAWNWIRQFPGNKLEWMGYIIYSGSTSYNPSLNSRISITRDTSKNQFFLQLNSVTTEDTATYYCAREAYLYFDYWGQGTTLTVSS
# VL: DIQMTQTTSSLSASLGDRVTISCRASQDINNYLNWYQQKPDGTVKLLIYYTSRLHSGVPSRFSGSGSGTDYSLTISNLEREDVATYFCQQGNTLPWTFGGGTKLEIK
# Assays:
# [1] = biological target: T1, human CD73 (ecto-5'-nucleotidase) …; experiment: flow cytometry titration on human-CD73-expressing cell line
# Method: (§1) 10⁵ cells resuspended in PBS/0.2% BSA/0.02% NaN3 (named “staining buffer”) are distributed into round bottom 96W-microplates. Dose-range of anti-CD73 antibodies was added to the plates and cells are incubated for 45 min at 4° C. Cells were washed three times in staining buffer by spinning plates at 400 g for 3 min at 4° C. PE-coupled goat anti-mouse or goat anti-human IgG Fc fragment secondary antibodies (Beckman Coulter) diluted in staining buffer were added to the cells and plates are incubated for 30 additional minutes at 4° C. Cells were washed three times as described above and analyzed on an Accury C6 flow cytometer equipped with an HTFC plate reader.
# (§2) Median of fluorescence vs. antibodies concentration was plotted on graphs and EC50 is calculated using GraphPad Prism program.
# [2] = biological target: T1, human CD73 (ecto-5'-nucleotidase) …; experiment: flow cytometry titration on MDA-MB-231 cells, endogenous CD73
# Method: as §1, §2
# human CD73 mutant 4 = biological target: T2, human CD73 mutant 4; experiment: flow cytometry titration on HEK-293T cells transfected with CD73 mutant 4
# Method: Anti-CD73 antibodies are tested for their binding to each mutant by flow cytometry. A first experiment is performed to determine antibodies that lose their binding to one or several mutants at one concentration. To confirm a loss of binding, titration of antibodies is done on antibodies for which binding seemed to be affected by the CD73 mutations (1-0.1-0.01-0.001 μg/ml).
# [3] = biological target: T3, recombinant human CD73-His …; experiment: SPR (Biacore T100, 25 °C), antibody captured on Protein-A, soluble dimeric CD73 injected 1.23 to 300 nM, 1:1 kinetic model, bivalent affinity
# Method: SPR measurements were performed on a Biacore T100 apparatus (Biacore GE Healthcare) at 25° C. In all Biacore experiments HBS-EP+(Biacore GE Healthcare) and NaOH 10 mM served as running buffer and regeneration buffer respectively. Sensorgrams were analyzed with Biacore T100 Evaluation software. Protein-A was purchase from (GE Healthcare). Human soluble dimeric CD73 proteins were cloned, produced and purified at Innate Pharma.
# Protein-A proteins were immobilized covalently to carboxyl groups in the dextran layer on a Sensor Chip CMS. The chip surface was activated with EDC/NHS (N-ethyl-N′-(3-dimethylaminopropyl) carbodiimide hydrochloride and N-hydroxysuccinimide (Biacore GE Healthcare). Protein-A was diluted to 10 μg/ml in coupling buffer (10 mM acetate, pH 5.6) and injected until the appropriate immobilization level was reached (i.e. 2000 RU). Deactivation of the remaining activated groups was performed using 100 mM ethanolamine pH 8 (Biacore GE Healthcare).
# Affinity study was carried out according to a standard Capture-Kinetic protocol recommended by the manufacturer (Biacore GE Healthcare kinetic wizard). Serial dilutions of human recombinant soluble dimeric CD73 proteins, ranging from 1.23 to 300 nM were sequentially injected over the captured anti-CD73 antibodies and allowed to dissociate for 10 min before regeneration. […]
binder,measurement,setting,value
B1,EC50,[1],0.187 µg/mL
same,EC50,[2],0.054 µg/mL
same,fold lower EC50 than AD2,[2],~8 fold
same,EC50 (read off the curve),human CD73 mutant 4,~0.2 µg/mL
same,Kd,[3],527 pM

# Reference: patent publication US20190225703A1 (INNATE PHARMA, published 2019)
